Values joined by “and” are separate entries in the source; they are usually repeats but may differ in a detail not shown here. Identical values can stand only once. Like-named read-outs stand apart in the source and are kept apart here. Ends that are not written are not given here.
Assays:
clone C455-69 = experiment: Proliferation response of clone C455-69 to BP peptides (Table 28); assay type: cell-based, rat
Experimental: Proliferation assays: Proliferation assays were performed in 96-well microtiter plates. 2×10^4 T cells and 10^6 irradiated thymocytes/well were incubated with stimulation medium only, ConA, or antigen at 37C in 7% CO2. The cultures were incubated for 72 h, the last 18 h in the presence of 0.5 Bq ^3 H-Tdr. The cells were harvested onto glass fiber filters and TCR uptake was assessed by liquid scintillation. Mean CPM wre calculated from triplicate wells. The standard deviation from replicate wells varied <10% from the mean values.
the homologous RtBP sequence. Five μg/ml ConA or 50 μg/ml of each

[1] = tested on: T cell lines derived from rats protected from EAE; experiment: Proliferation of LN cells and T cell lines from rats protected by TCR Vβ8 peptide (Table 12); assay type: cell-based, rat
[2] = tested on: LN cells and T cell lines; experiment: Proliferation of LN cells and lines from rats protected by transfer of TCR Vβ8 peptide-specific T cells (Table 15); assay type: cell-based, rat
Experimental: ^1 Lymph node (LN) cells were collected 20 days after simultaneous
^2 LN cells were tested directly (NL column).
^3 T cell lines were selected from these LN cells by culture with TCR

popliteal LN cells = experiment: Proliferation of LN cells after EAE induction and TCR peptide treatment (Table 23); assay type: cell-based, Lewis rats
Experimental: The proliferative responses and specificity of T cells in the draining LN (popliteal) of rats treated with TCR Vβ8(39-59) peptide for EAE on day 13 after disease induction were examined (Table 23). On day 0, Lewis rats received an EAE-inducing regimen of GP-BP+CFA SC into their hind footpads. […] On day 20, about 7 days after onset of EAE, popliteal LNs were removed and T cell proliferative activity in response to the indicated antigens or mitogens were tested directly.
Results are shown as net ^3 Hthymidine incorporation of 5 ×

peptide-selected T cells = experiment: Proliferation of peptide-selected T cells after in vivo TCR peptide treatment (Table 24); assay type: cell-based, Lewis rats
Source text: LN cells from control rats responded best to Con A, PPD, GPBP and GPBP (72-89), and GPBP (45-89) (which includes the 72-89 sequence and another immunogenic but non-encephalitogenic peptide). […] LN cells from rats treated ID with the TCR peptide esponded similarly to the control cells, with the exception of a reduced response to GPBP (72-89). […] An aliquot of each of the above 3 groups of LN cells was stimulated in culture with either GPBP or with the TCR peptide for 3 days, and the cells expanded in IL-2 for 5 more days. The proliferative responses to the various antigens and mitogens of these selected T cells were examined, as above.

[3] = tested on: lymph node cells and Vβ8-44-54 selected T cell line
LNC and T cell lines = experiment: T cell proliferation after treatment of EAE with TCR Vβ8 39-59/CFA (Table 27); assay type: cell-based, rats
Experimental: Lymphocyte Proliferation: Activation of T cells was measured by ^3 H-Tdy uptake. 500,000 lymph node cells or 20,000 line cells in the presence of 1 million irradiated thymic accessory cells were incubated with culture medium and antigens in microtiter wells for 18 hours prior to the addition of 0.5 μBq labeled thymidine. The cell cultures were harvested onto glass fiber filters and counted by liquid scintillation techniques. Mean CPM were calculated from triplicate cultures. Standard deviations (SD) from replicate cultures varied <10% from the mean value.
^a Treated rats were injected s.q. with 50 μg TCR Vβ839-59
^b LW cells collected after the untreated group recovered from EAE

EAE [4] = experiment: Prevention and suppression of EAE by immunization with TCR Vβ8(39-59) (Table 17); assay type: in vivo, Lewis rats; details: antigen alone, day 0 (no TCR peptide)
EAE [5] = experiment: Prevention, suppression and treatment of EAE with TCR Vβ8-39-59 peptide (Table 25); assay type: in vivo, Lewis rats; details: GP-BP/CFA only
DTH response = experiment: Delayed hypersensitivity responses to TCR peptides, ear swelling (Table 26); assay type: in vivo, Lewis rats
[6] = tested on: clones C372-89 and C455-69; experiment: Coculture of clones C372-89 and C455-69, proliferation (Table 31); assay type: cell-based, rat
Experimental: 50 μg of antigen was added to 10,000 cells of each clone stimulated in […]

[7] = 50 μg/ml peptide (5 μg/ml ConA), 20,000 clone C455-69 cells, 3 days
[8] = 1st value column (head not given; LN cells of protected rats)
[9] = 2nd value column (head not given, TCR Vβ8(39-59)-selected line)
[10] = 4th value column (head not given; mixed TCR- and BP-specific T cells)
[11] = Treated rats (TCR Vβ8 39-59/CFA at onset), LNC
[12] = Untreated rats (GPBP/CFA only), LNC
[13] = A. TCR Vβ8 peptide-specific T cell transfer
[14] = 50 μg antigen, 10,000 cells, 3 days

In the case of “APKRGSGKDSH HAARTTH (APKRGSGKDSHHAARTTH) [43-67, Gp-BP fragment 43-67 (printed from residue 50)]”, the “Response CPM/1000 ± S.D.” value (clone C455-69; [7]) is reported as 249 ± 12 CPM/1000.

For SGKDSH HATRTTHYGSLPQK [55-74 modified], the “Response CPM/1000 ± S.D.” value (clone C455-69; [7]) was 150 ± 15 CPM/1000.

In the case of “APKRGSGKDSH HAARTTHYG (APKRGSGKDSHHAARTTHYG) [50-69]”, the “Response CPM/1000 ± S.D.” value (clone C455-69; [7]) is reported as 277 ± 14 CPM/1000.

“Concanavalin A [Con A, reference compound]” was tested, and the “T Cell Proliferation” value [1] was 99 and 96 and 80 and 123, the “Proliferation, TCR Peptide Selected Line” value [2] was 46 and the “T Cell Proliferation” value (popliteal LN cells) was 85 and 78 and 146. The Proliferative response (peptide-selected T cells) was 76 and 52 and 68 and 95, the “Response CPM/1000 ± S.D.” value (clone C455-69) was 229 ± 15 and the “Response of Lymph Node Cells” value [3] was 293 ± 39. The “Response of T Cell Line, percent (in parentheses)” value [3] was 88% and 93% and 106%.

With LRLIHYSYDVN [Vβ8-44-54, LRLIHYSYDVN] the “inhibition of T cell response” value ([3]; 72 h) was 76%.

B1: Rat BP: rat myelin basic protein (protein, UniProt P02688 2-195, looked up)
Myelin basic protein: ASQKRPSQRHGSKYLATASTMDHARHGFLPRHRDTGILDSIGRFFSGDRGAPKRGSGKVPWLKQSRSPLPSHARSRPGLCHMYKDSHTRTTHYGSLPQKSQRTQDENPVVHFFKNIVTPRTPPPSQGKGRGLSLSRFSWGAEGQKPGFGYGGRASDYKSAHKGFKGAYDAQGTLSKIFKLGGRDSRSGSPMARR
B1 was tested, and the “T Cell Proliferation” value [1, 8] was 11 cpm × 10^-3, the “T Cell Proliferation” value [1, 9] was 1 cpm × 10^-3 and the “T Cell Proliferation” value [1, 10] was 9 cpm × 10^-3. For the same molecule, the “T Cell Proliferation” value ([1]; GPBP-selected line) was 9 cpm × 10^-3, the Proliferative response (peptide-selected T cells; day 13 inj. Control, selection with GPBP) was 46 and the Proliferative response (peptide-selected T cells; day 13 inj. TCR Vβ 8(39-59) + CFA, selection with GPBP) was 14. The Proliferative response (peptide-selected T cells; day 13 inj. TCR Vβ 8(39-59) + CFA, selection with Vβ 8(39-59)) was 4, the Proliferative response (peptide-selected T cells; day 13 inj. TCR Vβ 8(39-59) ID, selection with CPBP (so in the source)) was 36 and the Proliferation (LNC and T cell lines; [11]) was 49 ± 2 CPM/1000. The Proliferation (LNC and T cell lines; Treated rats, line BP/1st) was 14 ± 2 CPM/1000, the Proliferation (LNC and T cell lines; Treated rats, line Vβ8/1st) was 4 ± 1 CPM/1000 and the Proliferation (LNC and T cell lines; [12]) was 40 ± 2 CPM/1000. The Proliferation (LNC and T cell lines; Untreated rats, line BP/1st) was 46 ± 3 CPM/1000, the Proliferation (LNC and T cell lines; Untreated rats, line Vβ8/1st) was 11 ± 4 CPM/1000 and the “Response CPM/1000 ± S.D.” value (clone C455-69; [7]) was 0.2 ± 0.1 CPM/1000.

B2: GPBP: guinea pig basic protein, encephalitogen (protein, UniProt P25188 1-167, looked up)
Myelin basic protein: ASQKRPSQRHGSKYLATASTMDHARHGFLPRHRDTGILDSIGRFFGSDRAAPKRGSGKDSHHAARTTHYGSLPQKSQRSQDENPVVHFFKNIVTPRTPPPSQGKGRGLSLSRFSWGAEGQKPGFGYGGRADYKSKGFKGAHDAQGTLSKIFKLGGRDSRSGSPMARR
In the case of B2, the “T Cell Proliferation” value [1, 8] is reported as 16 cpm × 10^-3, the “T Cell Proliferation” value [1, 9] is reported as 3 cpm × 10^-3 and the “T Cell Proliferation” value [1, 10] is reported as 102 cpm × 10^-3. For the same molecule, the “T Cell Proliferation” value ([1]; GPBP-selected line) was 93 cpm × 10^-3, the “Proliferation, GPBP Selected Line” value [2, 13] was 16 cpm × 10^-3 and the “Proliferation, TCR Peptide Selected Line” value [2, 13] was 0 cpm × 10^-3. The “Proliferation, LN” value ([2]; A. rats given 3 × 10^7 TCR Vβ8 peptide-specific T cells + GPBP/CFA, LN cells day 20) was 80 cpm × 10^-3, the “Proliferation, GPBP Selected Line” value ([2]; B. Saline + GPBP/CFA) was 65 cpm × 10^-3 and the “Proliferation, LN” value ([2]; B. Saline + GPBP/CFA) was 32 cpm × 10^-3. The “Clinical Score” value (EAE [4]) was 3.1 ± 0.6, the “T Cell Proliferation” value (popliteal LN cells; LN cells day 20 of Control rats (saline day 13)) was 49 cpm × 10^-3 and the “T Cell Proliferation” value (popliteal LN cells; LN cells of rats given TCR Vβ 8(39-59) 50 μg ID day 13) was 44 cpm × 10^-3. The “T Cell Proliferation” value (popliteal LN cells; LN cells of rats given TCR Vβ 8(39-59) 100 μg SC (in CFA) day 13) was 50 cpm × 10^-3, the Duration (EAE [5]) was 6.6 ± 0.9 days and the EAE/TOTAL (EAE [5]) was 26/26. For the same molecule, the “Max Clin. Signs” value (EAE [5]) was 3.4 ± 0.2, the Onset (EAE [5]) was 12 and the “48 Hour DTH Response” value (DTH response; GP-BP/CFA immunized rats, ear test Day 12 (EAE onset)) was 35 ± 5. The “48 Hour DTH Response” value (DTH response; Normal or saline/CFA rats, ear test Day 12) was 5 ± 3, the “net proliferation of reactive cells” value (LNC and T cell lines; GP-MBP-selected line from TCR peptide-treated rats) was 12,000 CPM and the “net proliferation of reactive cells” value (LNC and T cell lines; GP-MBP-selected line from untreated EAE-recovered rats) was 84,000 CPM. For the same molecule, the Proliferation (LNC and T cell lines; [11]) was 50 ± 7 CPM/1000, the Proliferation (LNC and T cell lines; Treated rats, line BP/1st) was 29 ± 6 CPM/1000 and the Proliferation (LNC and T cell lines; Treated rats, line Vβ8/1st) was 6 ± 1 CPM/1000. For the same molecule, the Proliferation (LNC and T cell lines; [12]) was 49 ± 5 CPM/1000, the Proliferation (LNC and T cell lines; Untreated rats, line BP/1st) was 99 ± 9 CPM/1000 and the Proliferation (LNC and T cell lines; Untreated rats, line Vβ8/1st) was 23 ± 2 CPM/1000. The Proliferation (LNC and T cell lines; Untreated rats, line Vβ14/1st) was 11 ± 1 CPM/1000, the “Response CPM/1000 ± S.D.” value (clone C455-69; [7]) was 203 ± 7 CPM/1000 and the “Proliferation, C372-89” value [6, 14] was 40 ± 3 CPM/1000. The “Proliferation, C455-69” value [6, 14] was 50 ± 9 CPM/1000 and the “Proliferation, C372-89 + C455-69” value ([6]; coculture, 10,000 cells of each clone) was 91 ± 12 CPM/1000.

— patent publication US5614192A, “T cell receptor peptides as therapeutics for immune-related disease” (Connective Therapeutics, Inc., priority 1993, dated 1997)
